Data published in article PMC10873595, “Filament structure and subcellular organization of the bacterial intermediate filament–like protein crescentin” (Proceedings of the National Academy of Sciences of the …, 2024).
Like-named read-outs stand apart in the source and are kept apart here.

T1: CreS-His (full-length CreS followed by GSHHHHHH) (Caulobacter crescentus (vibrioides) …)
T1 construct: crescentin (CreS), Caulobacter crescentus (vibrioides), residues 1-457; also called pFE127 product; source: E. coli C41 (DE3), in cleared lysate; also purified (HisTrap, size exclusion chromatography)
T1 chain: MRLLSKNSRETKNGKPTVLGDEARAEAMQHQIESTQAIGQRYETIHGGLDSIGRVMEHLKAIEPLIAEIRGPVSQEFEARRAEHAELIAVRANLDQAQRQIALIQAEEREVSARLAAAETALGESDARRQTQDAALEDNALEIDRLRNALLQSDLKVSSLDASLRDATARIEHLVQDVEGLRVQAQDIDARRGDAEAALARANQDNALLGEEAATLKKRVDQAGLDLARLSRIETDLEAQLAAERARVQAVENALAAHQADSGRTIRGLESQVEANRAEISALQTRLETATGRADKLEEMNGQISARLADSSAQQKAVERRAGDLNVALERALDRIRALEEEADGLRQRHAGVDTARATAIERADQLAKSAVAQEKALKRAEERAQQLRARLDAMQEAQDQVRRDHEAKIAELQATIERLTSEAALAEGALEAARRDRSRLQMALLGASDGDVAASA


How the values were obtained:
[1] = target: T1, CreS-His (full-length CreS followed by …); assay: far-Western, overlay or dot blot; cleared lysates of E. coli C41 (DE3) expressing CreS-His variants resolved by SDS-PAGE, blotted, probed with NB13 (7 µg/mL) then α-HA-peroxidase; conditions: one partner purified
[2] = target: T1, CreS-His (full-length CreS followed by …)

binding result [1] | binding result [2] | Binder
binds | – | nanobody 13 (NB13) (VHH, camelid nanobody raised against purified CreSwt; also called CreS-specific nanobody; clone No. 13; source: E. coli WK6, periplasmic extract, purified (HisTrap); not shown: HA, C-terminal, kept) VHH: QVQLQESGGGLVQTGGSLRLSCASSRSIDGINIMRWYRQAPGKQRGMVAVVTGWGSTNYVDSVKGRFIISRDSAKDTVYLQMNNLKPEDTAVYSCNAIYRGSEYWGQGTQVTVSS
– | binds | Megabody MB13 (NB13, YgjK) (VHH) VHH: AHNTESGEMLFTVKKDSLRLSCASSRSIDGINIMRWYRQAPGKQRGMVAVVTGWGSTNYVDSVKGRFIISRDSAKDTVYLQMNNLKPEDTAVYSCNAIYRGSEYWGQGTQVTVSS
